According to US20210079109A1 (Regeneron, published 2021):

T1: human CD63 (human, UniProt P08962 2-238)
T1 construct: stably transfected in NIH3T3/hCD63; The cell line is named under assay; also called hCD63
T1 sequence: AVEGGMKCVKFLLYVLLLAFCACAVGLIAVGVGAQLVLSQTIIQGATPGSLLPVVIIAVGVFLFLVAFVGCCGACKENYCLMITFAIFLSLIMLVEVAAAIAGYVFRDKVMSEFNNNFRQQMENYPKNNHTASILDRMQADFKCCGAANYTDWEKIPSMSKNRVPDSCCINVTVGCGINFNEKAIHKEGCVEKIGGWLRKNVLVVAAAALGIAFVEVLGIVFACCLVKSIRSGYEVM

B1: H1M12362N (antibody, V domains shown)
VH: QVQLVESGGGLVKPGGSLRLSCAASGFIFSDYYINWIRQAPGKGLEWVSYTSSSGSTTYYEDSVKGRFTMSRDNARNLVYLQMNSLRAEDTAAYYCVRDLRYNDGLDVWGQGTTVTVSS
VL: DILLTQSPSSLSASVGDRVTITCRASQSIRTYLNWYQQKPGRAPKLLVYAASSLQSGVPSRFSGSGSGTDFTLTISSLQPEDFATYFCQQSYDNPPITFGQGTRLAIK
B2: H2M13022N (antibody, V domains shown)
VH: QVQLVESGGGLVQPGGSLRLSCAASGFIFGDYYINWIRQAPGKGLQWVSYTSSSGSTTYYEDSVKGRFTMSRDNAKNLVYLQMNSLRAEDTAAYYCVRDLRYNDGLDVWGQGTTVIVSS
VL: DILLTQSPSSLSAFVGDRVTITCRASQNIRTYLNWYQQKPGRAPKLLVYAASTLQSGVPSRFSGSGSGTDFTLTISSLQPEDFASYFCQQSYDNPPITFGQGTRLAIK
notes: also called H2bM13022N
B3: H2M12452N (antibody, V domains shown)
VH: QVQLQEAGPGLVKPSETLSLTCIVSGGSISGFYWNWIRQPPGKGLEWIGYFLYSGTIDYNPSLKSRVTISVDTSKNQFFLKLSFVTAADTAVYYCVRMGLGANAFDIWGRGTMVTVSS
VL: EIVLTQSPGTLSLSPGERATLSCRASQTVSRSFLAWYQQKPGQAPRLLIYGPSSRATGIPDRFSGSGSGTDFTLTISRLEPEDFAVYYCQQYGNSPWTFGQGTKVEIK
notes: also called H2aM12452N
B4: H3M12361N (antibody, V domains shown)
VH: EVQLVESGGGLVQPGRSLRLSCTASGFTFGDHAMHWVRQAPGKGLEGVSSINWNSGIIGYAESVKGRFTISRDNAKNSLYLQMNNLRAEDTGLYYCARDIGVATLGIDYWGQGTLVTVSS
VL: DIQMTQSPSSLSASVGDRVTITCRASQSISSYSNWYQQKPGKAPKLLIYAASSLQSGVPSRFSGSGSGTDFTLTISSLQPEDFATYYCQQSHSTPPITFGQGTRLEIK
B5: H4H11996P2 (antibody, V domains shown)
VH: QVQLVESGGGLVKPGGSLRLSCAASGFIFTDYFMNWIRQAPGKGLEWVSYISNSGNILYYADSVKGRFTISRDNAKASLYLQMSSLKAEDTAVYYCVRDPRMFYGMDVWGQGTTVTVSS
VL: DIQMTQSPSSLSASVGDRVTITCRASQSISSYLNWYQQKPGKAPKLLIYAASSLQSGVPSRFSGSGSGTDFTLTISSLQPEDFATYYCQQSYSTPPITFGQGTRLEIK

Assays:
[1] = biological target: T2, recombinant human CD63 extracellular loop 2 expressed with a C-terminal Myc-Myc-hexahistidine (human); assay: SPR Biacore, mAb captured, 37C
T2 construct: also called hCD63 EC loop 2-MMH; human CD63 EC loop 2-MMH
T2 sequence (chain, as listed by the source limits assumed): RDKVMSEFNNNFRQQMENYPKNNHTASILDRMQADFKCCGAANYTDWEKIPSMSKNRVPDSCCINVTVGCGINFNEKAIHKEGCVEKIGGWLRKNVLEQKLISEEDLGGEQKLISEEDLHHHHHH
Description: (§1) Equilibrium dissociation constants (KD) for different CD63 (EC2) loop reagents binding to purified anti-CD63 monoclonal antibodies were determined using a real-time surface plasmon resonance based Biacore T200 biosensor or Biacore 2000 biosensor. All binding studies were performed in 10 mM HEPES, 150 mM NaCl, 3 mM EDTA, and 0.05% v/v Surfactant Tween-20, pH 7.4 (HBS-ET) running buffer at 25° C. and 37° C. The Biacore CMS sensor chip surface was first derivatized by amine coupling with either a rabbit anti-mouse Fc specific polyclonal antibody (GE Healthcare, Cat #BR100838) or an anti-human Fab kit (GE Healthcare, Cat #28958325) to capture anti-CD63 monoclonal antibodies. […] The association rate (Kₐ) and dissociation rate (kd) were determined by fitting the real-time binding sensorgrams to a 1:1 binding model with mass transport limitation using Scrubber 2.0c curve-fitting software. Binding dissociation equilibrium constant (KD) and dissociative half-life (t½) were calculated from the kinetic rates as: […]
(§2) Binding kinetics parameters for human CD63 EC loop 2 protein binding to different anti-CD63 monoclonal antibodies of the invention at 25° C. and 37° C. are shown in Tables 6 through 9.

[2] = biological target: T3, recombinant human CD63 extracellular loop 2 expressed with a C-terminal human Fc tag (human); assay: SPR Biacore, mAb captured, 37C
T3 construct: also called hCD63 EC loop 2-hFc; human CD63 EC loop 2-Fc
T3 sequence (chain, as listed by the source limits assumed): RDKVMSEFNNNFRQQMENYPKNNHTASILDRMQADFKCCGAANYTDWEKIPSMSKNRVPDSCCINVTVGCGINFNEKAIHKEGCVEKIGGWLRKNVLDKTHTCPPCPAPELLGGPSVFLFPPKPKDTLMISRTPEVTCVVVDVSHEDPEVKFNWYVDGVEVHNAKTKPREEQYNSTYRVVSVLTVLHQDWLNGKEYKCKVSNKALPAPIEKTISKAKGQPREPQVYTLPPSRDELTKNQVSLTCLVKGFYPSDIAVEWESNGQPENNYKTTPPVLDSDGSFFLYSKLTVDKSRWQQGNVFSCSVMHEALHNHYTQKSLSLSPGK
Description: as §1, §2

[3] = biological target: T2, recombinant human CD63 extracellular …; assay: SPR Biacore, mAb captured, 25C
Description: as §1, §2

[4] = biological target: T3, recombinant human CD63 extracellular …; assay: SPR Biacore, mAb captured, 25C
Description: as §1, §2

[5] = biological target: T1, human CD63; assay: ECL, LNCAP cells
Description: (§3) LNCAP cells were determined to have a lower human CD63 copy number than U87MG cells. Non-transfected NIH3T3 cells, which have no detectable expression of human CD63 by fluorescence activated cell sorting (FACS), were included as a negative control.
(§4) Briefly, cell lines were rinsed once in PBS buffer without Ca²⁺/Mg²⁺ and incubated for 10 minutes at 37° C. with Enzyme Free Cell Dissociation Solution (Millipore, Cat #S-004-C) to detach the cells. Cells were then washed once with PBS with Ca²⁺/Mg²⁺ and counted with a Cellometer™ Auto T4 cell counter (Nexcelom Bioscience, LLC). Approximately 2.0×10⁴ NIH3T3/hCD63, LNCAP, U87MG or NIH3T3 cells were seeded separately onto 96-well carbon electrode plates […]) and were then incubated for one hour at 37° C. Nonspecific binding sites were blocked with 2% BSA (w/v) in PBS with Ca²⁺/Mg²⁺ for one hour at room temperature (RT). Solutions containing anti-CD63 antibodies or isotype control antibodies at a range of concentrations (1.7 pM to 100 nM) in 0.5% BSA (w/v) in PBS with Ca²⁺/Mg²⁺, as well as control buffer alone, were then added in duplicate to the plate-bound NIH3T3/hCD63, LNCAP, U87MG or NIH3T3 cells and incubated for one hour at RT. Plates were subsequently washed to remove unbound antibodies using an AquaMax2000 plate washer with a cell washing head (MDS Analytical Technologies). […] Plates were washed and then incubated with Read Buffer (MSD, Cat #R92TD-2) according to the manufacturer's instructions. Luminescent signals were measured using a SECTOR Imager (MSD).

[6] = biological target: T1, human CD63; assay: ECL, NIH3T3/hCD63 cells
Description: as §3, §4

[7] = biological target: T1, human CD63; assay: ECL, U87MG cells
Description: as §3, §4

Row | Binder | 100 nM Ag Bound (RU) [1] [RU] | Kd [1] [nM] | koff [1] [s⁻¹] | kon [1] [M⁻¹ s⁻¹] | t1/2 [1] [min] | 100 nM Ag Bound (RU) [2] [RU] | Kd [2] [nM] | koff [2] [s⁻¹] | kon [2] [M⁻¹ s⁻¹] | t1/2 [2] [min] | 100 nM Ag Bound (RU) [3] [RU] | Kd [3] [nM] | koff [3] [s⁻¹] | kon [3] [M⁻¹ s⁻¹] | t1/2 [3] [min] | 100 nM Ag Bound (RU) [4] [RU] | Kd [4] [nM] | koff [4] [s⁻¹] | kon [4] [M⁻¹ s⁻¹] | t1/2 [4] [min] | further results
1 | B1 | 32 | 19.5 | 0.0072 | 369000 | 2 | 118 | 0.977 | 0.000669 | 685000 | 17 | 51 | 12.7 | 0.00144 | 113000 | 8 | 125 | 0.84 | 0.000399 | 477000 | 29 | EC50 [5]: 0.57 nM; binding ratio at 3.7 nM vs NIH3T3 [5]: 16 fold; EC50 [6]: 0.63 nM; binding ratio at 3.7 nM vs NIH3T3 [6]: 283 fold; EC50 [7]: 0.56 nM; binding ratio at 3.7 nM vs NIH3T3 [7]: 174 fold
2 | B2 | 31 | 21.5 | 0.00671 | 311000 | 2 | 107 | 1.01 | 0.000562 | 557000 | 21 | 48 | 13 | 0.00132 | 102000 | 9 | 117 | 0.61 | 0.00028 | 460000 | 41 | EC50 [5]: 0.32 nM; binding ratio at 3.7 nM vs NIH3T3 [5]: 8 fold; EC50 [6]: 0.45 nM; binding ratio at 3.7 nM vs NIH3T3 [6]: 95 fold; EC50 [7]: 0.85 nM; binding ratio at 3.7 nM vs NIH3T3 [7]: 71 fold
3 | B3 | 34 | 6.98 | 0.00269 | 385000 | 4 | 104 | 1.1 | 0.000857 | 779000 | 13 | 35 | 7.33 | 0.000596 | 81300 | 19 | 91 | 1.87 | 0.000228 | 122000 | 51 | EC50 [5]: 0.74 nM; binding ratio at 3.7 nM vs NIH3T3 [5]: 37 fold; EC50 [6]: 0.61 nM; binding ratio at 3.7 nM vs NIH3T3 [6]: 593 fold; EC50 [7]: 2 nM; binding ratio at 3.7 nM vs NIH3T3 [7]: 260 fold
4 | B4 | 39 | 5.85 | 0.00289 | 495000 | 4 | 97 | 0.568 | 0.00037 | 651000 | 31 | 43 | 3.12 | 0.000805 | 258000 | 14 | 83 | 0.299 | 0.000132 | 441000 | 87 | EC50 [5]: 1.1 nM; binding ratio at 3.7 nM vs NIH3T3 [5]: 19 fold; EC50 [6]: 0.81 nM; binding ratio at 3.7 nM vs NIH3T3 [6]: 243 fold; EC50 [7]: 1.3 nM; binding ratio at 3.7 nM vs NIH3T3 [7]: 111 fold
5 | B5 | 46 | 361 | 0.0389 | 108000 | 0.3 | 294 | 0.264 | 0.000142 | 538000 | 81 | 61 | 84.9 | 0.014 | 165000 | 0.8 | 257 | 0.292 | 0.000135 | 461000 | 86 | EC50 [5]: 4.4 nM; binding ratio at 3.7 nM vs NIH3T3 [5]: 7 fold; EC50 [6]: 0.98 nM; binding ratio at 3.7 nM vs NIH3T3 [6]: 188 fold; EC50 [7]: 8.1 nM; binding ratio at 3.7 nM vs NIH3T3 [7]: 57 fold
